Test system: T1, Minos transposase (fly cDNA ILMi) (Drosophila hydei)
T1 sequence: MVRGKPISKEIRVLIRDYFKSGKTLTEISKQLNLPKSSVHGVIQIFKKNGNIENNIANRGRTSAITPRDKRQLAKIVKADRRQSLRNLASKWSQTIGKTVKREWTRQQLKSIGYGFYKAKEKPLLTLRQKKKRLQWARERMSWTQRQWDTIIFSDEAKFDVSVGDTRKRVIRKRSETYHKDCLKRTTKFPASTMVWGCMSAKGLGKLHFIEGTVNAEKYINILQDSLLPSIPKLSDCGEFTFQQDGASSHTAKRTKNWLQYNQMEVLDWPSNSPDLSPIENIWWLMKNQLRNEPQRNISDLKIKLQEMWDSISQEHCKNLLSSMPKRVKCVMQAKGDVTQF
Assay: cell_activity
Settings: germ-line transposition frequency in mouse, 12 events in 146 transposon-positive progeny; TA target site duplication

With “Minos transposon MiCMVGFP (Minos inverted repeats flanking CMV-GFP)” the activity was 8.2%.

Reference: patent publication US20050066376
